Test results taken from patent US20100239605A1.

Legend:
[1] = molecular target: HRV14-NimII-XXX17AA library (Human rhinovirus 14; influenza type A virus) (UniProt P03303); assay: cell-based or functional assay
[2] = molecular target: HRV14-NimII-XXX23AA library (Human rhinovirus 14; influenza type A virus) (UniProt P03303); assay: cell-based or functional assay

“anti-M2e Mab 14C2 (Abcam, Inc; Cat# ab5416) (antibody)” was tested. Which Fifty-percent neutralization (PRNT) (reciprocal dilution of 1 mg/ml stock) [1] did it give?
The Fifty-percent neutralization (PRNT) (reciprocal dilution of 1 mg/ml stock) was 2e+06.

What about the Fifty-percent neutralization (PRNT) (reciprocal dilution of 1 mg/ml stock) [2] of the same substance?
The Fifty-percent neutralization (PRNT) (reciprocal dilution of 1 mg/ml stock) was 2e+06.
